Measured values as given in PMC10269722, “LexR Positively Regulates the LexABC Efflux Pump Involved in Self-Resistance to the Antimicrobial Di-N-Oxide Phenazine in Lysobacter antibioticus”.

B1: lex probe (165 bp) (dsDNA)
DNA 1: ATGGGAGAAACGCGAATCGGGCTTGTCGGGGGCTCAACATGGCGGGGGGCCTCGTGTCGATCTGCGGCAAAGAGTAGAGAGATGGACGGCACTTGATTAGCCACTGATTCAGGGAATAATTGTCCCGACATCGGGCCAATGCCCTCTCTGCCTCCTTGAATGCCC
DNA 2: GGGCATTCAAGGAGGCAGAGAGGGCATTGGCCCGATGTCGGGACAATTATTCCCTGAATCAGTGGCTAATCAAGTGCCGTCCATCTCTCTACTCTTTGCCGCAGATCGACACGAGGCCCCCCGCCATGTTGAGCCCCCGACAAGCCCGATTCGCGTTTCTCCCAT
B2: unlabeled lex probe (165 bp) (dsDNA)
DNA 1: B1 DNA 1
DNA 2: B1 DNA 2
B3: probe 4 (probe 3 with putative LexR site) (dsDNA)
DNA 1: GGCTCCGCGCCTGCCAGCATAATTGTTCGTTGTCTGGGGGCTAGGGCGAGACACCCGC
DNA 2: GCGGGTGTCTCGCCCTAGCCCCCAGACAACGAACAATTATGCTGGCAGGCGCGGAGCC
B4: control probe (158 bp) (dsDNA)
DNA 1: ATGCGCCTCGCGATCAACACGGTCGCATCCCCTCTTTGCCAGCCACGGCTCCGCGCCTGCCAGCTTCTTTTTTCGTTGTCTGGGGGCTAGGGCGAGACACCCGCATACCGATGACTTCGTCGGCAGTGGCCCAAGACGGATTGCGTAGTGCGCCTACG
DNA 2: CGTAGGCGCACTACGCAATCCGTCTTGGGCCACTGCCGACGAAGTCATCGGTATGCGGGTGTCTCGCCCTAGCCCCCAGACAACGAAAAAAGAAGCTGGCAGGCGCGGAGCCGTGGCTGGCAAAGAGGGGATGCGACCGTGTTGATCGCGAGGCGCAT
B5: probe 2 (50 bp, 8-bp site deleted) (dsDNA)
DNA 1: ACTTGATTAGCCACTGATTCAGGGACCCGACATCGGGCCAATGCCCTCTC
DNA 2: GAGAGGGCATTGGCCCGATGTCGGGTCCCTGAATCAGTGGCTAATCAAGT
B6: probe 1 (58 bp) (dsDNA)
DNA 1: ACTTGATTAGCCACTGATTCAGGGAATAATTGTCCCGACATCGGGCCAATGCCCTCTC
DNA 2: GAGAGGGCATTGGCCCGATGTCGGGACAATTATTCCCTGAATCAGTGGCTAATCAAGT

Experiments:
LexR [1] = biological target: T1, LexR (Lysobacter antibioticus OH13, UniProt A0A0S2F3V0 1-384); experiment: EMSA; no myxin; EMSA (LightShift kit): 1x binding buffer, 50 ng/uL poly(dI-dC), 2.5% glycerol, 5 mM MgCl (so in the source), 0.05% NP-40, 5 fmol labeled probe in 20 uL, 30 min, room; conditions: protein: recombinant; tags: His6 (pET-28a, BamHI/EcoRI); chain copies: 2; label: 5' biotin; blunt
T1 sequence: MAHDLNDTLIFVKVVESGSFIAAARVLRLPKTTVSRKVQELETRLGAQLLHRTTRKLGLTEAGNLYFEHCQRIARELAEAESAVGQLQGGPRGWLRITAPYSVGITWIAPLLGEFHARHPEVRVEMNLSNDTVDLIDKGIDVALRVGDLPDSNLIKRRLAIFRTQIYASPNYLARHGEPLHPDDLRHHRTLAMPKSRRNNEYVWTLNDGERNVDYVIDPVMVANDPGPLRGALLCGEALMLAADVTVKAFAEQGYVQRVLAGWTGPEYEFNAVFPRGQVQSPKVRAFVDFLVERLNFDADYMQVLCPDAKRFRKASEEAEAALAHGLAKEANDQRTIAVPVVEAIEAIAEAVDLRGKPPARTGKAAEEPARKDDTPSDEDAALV

LexR [2] = biological target: T1, LexR; experiment: competition; unlabeled competitor vs biotin-lex probe; EMSA (LightShift kit): 1x binding buffer, 50 ng/uL poly(dI-dC), 2.5% glycerol, 5 mM MgCl (so in the source), 0.05% NP-40, 5 fmol labeled probe in 20 uL, 30 min, room; conditions: protein: recombinant; tags: His6 (pET-28a, BamHI/EcoRI); chain copies: 2; label: none; blunt
LexR [3] = biological target: T1, LexR; experiment: EMSA; EMSA (LightShift kit): 1x binding buffer, 50 ng/uL poly(dI-dC), 2.5% glycerol, 5 mM MgCl (so in the source), 0.05% NP-40, 5 fmol labeled probe in 20 uL, 30 min, room; conditions: protein: recombinant; tags: His6 (pET-28a, BamHI/EcoRI); chain copies: 2; label: 5' biotin; blunt

Binder | binding result (LexR [3]) | further results
B1 | – | binding result (LexR [1]): binds
B2 | – | binding result (LexR [2]): binds
B3 | no binding | –
B4 | no binding | –
B5 | no binding | –
B6 | binds | –
